Results as given in US20260216293A1, “METHODS AND AGENTS FOR TREATING RESPIRATORY INFLAMMATION AND ASSOCIATED DISEASES AND CONDITIONS” (AROA BIOSURGERY LIMITED, priority 2023, published 2026).

Legend:
Type in all cases: in vivo, C57BL/6 mice
[1] = tested on: murine model of respiratory inflammation (IT LPS); assay: MPO levels of BALF in LPS-induced murine model of respiratory inflammation; details: groups 4, 5 and 6 (2.5, 25, 100 μg/animal IV) at 6 hours and 24 hours; FIG. 6
Protocol: (§1) At −1 h (1 hr before the lipopolysaccharide (LPS) administration), animals were treated with: Vehicle for groups 1 and 2 via an intravenous route (200 μL); dexamethasone (5 mg/kg) as a positive control (group 3) via an intraperitoneal (IP) route (5 mg/kg, 200 μL); MD31-170 for groups 4-6 via an intravenous (IV) route at the appropriate dosage (200 μL).
After administration of anesthesia by sodium pentobarbital, the mice underwent intra-tracheal (IT) instillation of a nonlethal dose of LPS from E. coli 0111: B4 (Sigma-Aldrich, St. Louis, MO, USA) at 5 mg/kg dissolved in 100 μl PBS to induce acute respiratory inflammation. LPS (Sigma L4391, O111: B4) lyophilized powder was resuspended in 0.9% saline to give aliquots at 2.5 mg/ml which were stored at 20° C. […]
(§2) Lungs were harvested from each animal and weighed. […] The cell pellet was resuspended in 100 μL PBS and the number of total cells was counted using Cell Counter model R1 (Olympus, Tokyo, Japan). […] Neutrophil counts were quantified using a light microscope by counting a total of 200 cells/slide at 40× magnification.
MPO levels were evaluated from an aliquot of BALF in an MPO assay using Abcam kit (Cat. Ab155458) according to manufacturer's instructions.

[2] = tested on: murine model of respiratory inflammation (IT LPS); assay: BALF cytokine analysis (MSD) in LPS-induced murine model of respiratory inflammation; details: IV, 1 h before LPS
Protocol: All animal experiments were performed in accordance with the guidelines of decreasing the amount of suffering, pain, and discomfort of the experimental animals. A total of 54 male C57BL/6 mice were used in this study. Mice between the ages of 7 to 8 weeks were obtained from IACUC approved laboratory animal supplier. Animals were acclimated for at least 4 days prior to the study. Animals were housed in a temperature-controlled room with a 12-hour light/dark cycle, with ad libitum access to water and irradiated laboratory chow throughout the study. Animals were individually identified by ear tags. Animals were weighed one day prior to the start of the study and stratified into 6 groups of 9 animals so that each group has roughly the same average weight. Animals were monitored for any form of discomfort as well as for clinical symptoms of distress or ambulatory discomfort.
A total of 54 male C57BL/6 mice (7 to 8 weeks old, body weight […]) were used in this study, as set out below in Table 2.
as §1, with “μL). […]” for “μL).”
as §2
BALF cytokines concentrations were evaluated from an aliquot of BALF using the 29-plex cytokine MSD Platform (Cat. K152167D) according to manufacturer's instruction.

[3] = tested on: murine model of respiratory inflammation (IT LPS); assay: BALF neutrophil count in LPS-induced murine model of respiratory inflammation; details: all assessed timepoints (6, 24, 72 hours); FIG. 5
Protocol: as §1
(§3) After administration of anesthesia by sodium pentobarbital, the mice underwent intra-tracheal (IT) instillation of a nonlethal dose of LPS from E. coli 0111: B4 (Sigma-Aldrich, St. Louis, MO, USA) at 5 mg/kg dissolved in 100 μl PBS to induce acute respiratory inflammation. LPS (Sigma L4391, O111: B4) lyophilized powder was resuspended in 0.9% saline to give aliquots at 2.5 mg/ml which were stored at […]. At time=0 h, animals in vehicle group 1 were administered PBS (40 μL) via an IT route and animals in groups 2-6 were administered LPS (40 μL) at 5 mg/kg by an IT route to induce acute respiratory inflammation. Termination occurred at either 6 h, 24 h or 72 h with each animal weighed at the endpoint.
as §2

[4] = tested on: murine model of respiratory inflammation (IT LPS); assay: Lung histological pathology (H&E, lung injury score) in LPS-induced murine model of respiratory inflammation
Protocol: as §1, §3
The whole lung was fixed in 10% Neutral Buffered Formalin (NBF) and embedded in paraffin and then cut into 4 μm sections. Then, the sections were deparaffinized and stained with hematoxylin and eosin (H&E) for histological evaluation.
The severity of lung tissue inflammation was evaluated using lung injury score as follows. The severity of lung damage was scored based on the following histologic features: alveolar congestion, hemorrhage, infiltration of neutrophils in airspace or vessel wall, and thickness of alveolar wall/hyaline membrane formation. Each item was graded on a five-point scale from 0 to 4:0 (minimal damage), 1 (mild damage), 2 (moderate damage), 3 (severe damage), and 4 (maximal damage).

[5] = groups 4, 5 and 6 vs dexamethasone 5 mg/kg IP, FIGS. 7-9

B1: MD31-170: recombinant MayDay polypeptide comprising amino acids 31-170 of ovine decorin, expressed in BL21 E. coli (protein)
chain: DEASGIGPEERFHEVPELEPMGPVCPFRCQCHLRVVQCSDLGLEKVPKDLPPDTALLDLQNNKITEIKDGDFKNLKNLHTLILINNKISKISPGAFAPLVKLERLYLSKNQLKELPEKMPKTLQELRVHENEITKVRKSV
modifications: Ovis aries
notes: recombinant MayDay polypeptide comprising amino acids 31-170 of ovine decorin, expressed in BL21 E. coli
Which results are given for B1?
myeloperoxidase (MPO) in BALF [1]: significantly reduced; protein levels of TNF-α in BALF ([2]; 6 hours post-administration, compared to LPS control group (group 2), FIG. 2A): significantly decreased; protein levels of IFN-γ in BALF ([2]; 24 hours post-administration, compared with LPS group (group 2), FIG. 3B): significantly decreased; protein levels of IL-6 in BALF ([2]; 24 hours post-administration, compared with LPS group (group 2), FIG. 4B): significantly decreased; number of neutrophils in BALF [3]: decreased significantly; neutrophil score, inflammation score and interstitial inflammation score: dose dependence ([4]; 6, 24 and 72 hours post LPS-induction): dose dependent changes; neutrophil score (histology) ([4]; 24 hours, group 6 (100 μg/mouse) compared to LPS control (group 2), FIG. 7B): statistically significant decreases; inflammation score (inflammation-neutrophilic alveolar score, histology) ([4]; 24 hours, group 6 (100 μg/mouse) compared to LPS control (group 2), FIG. 8B): statistically significant decreases; interstitial inflammation score (histology) ([4]; 24 hours, group 6 (100 μg/mouse) compared to LPS control (group 2), FIG. 9B): statistically significant decreases; lung injury score ([4]; groups 4, 5 and 6 (2.5, 25, 100 μg/animal IV)): consistently and substantially decreased; pathological changes in the lung (alveolar wall not intact, interstitial edema, inflammatory cell infiltration) ([4]; groups 4, 5 and 6 (2.5, 25, 100 μg/animal IV), H&E): alleviated; lung damage relative to dexamethasone treated animals (group 3) [4, 5]: comparable or less than; positive effect on lung pathology relative to positive control dexamethasone (group 3) [4, 5]: comparable to or better than
